The text below walks through data of the nanobody polyreactivity screen of Harvey et al. (2022).

This data set in a line: yeast display, Sf9 membrane polyspecificity reagent, FACS + sequencing; frameworks hold sequencing errors. The method, boiled down: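 Synthetic nanobody libraries on Saccharomyces cerevisiae BJ5465 were galactose-induced for 36–48 hours, stained 1 hour at 4 °C with 10% biotinylated, detergent-solubilized Sf9 membrane reagent and enriched on streptavidin microbeads. FACS then separated cells into low and high (top ~1%) gates by anti-HA (expression) and streptavidin (reagent binding) fluorescence. Genes were colony-PCR amplified, MiSeq 2 × 250 sequenced and CDR-length filtered. A clone's polyreactivity label is that of its gate of origin.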
Turning to “QVQLVESGGGLVQAGGSLRLSCAASGFNFNYNAMGRYREAPGKERELVAAISTSGSSTYYADSVKGRFTISRDNAKNTVYLQMNSLKPEDTAVYYCAARRSTRHRYRVGTCYKYDYWGQGTQVTVSS”, the “polyreactivity (PSR sort gate)” value is “high polyreactivity”.

“QVQLVESGGGLVQAGGSLRLSCAASGFNFPDYAMGWYRQAPGKETELVAAITSAGGRTYYADSVKGRFTISRDNAKNTVYLQMNSLKPEDTAVFYCNALTTKGTGTYNGGYWGEGTQVTVSS”: the “polyreactivity (PSR sort gate)” value is “high polyreactivity”.

As to “QVQLVESGGGLVQAGGSLRLSCAASGFNFRTNAMGWYRQAPGKERELVAAISRSGNTYYADSVKGRFTISRDNAKNTVYLQMNSLKPEDTAVYYCAAQSVRWYSSFKYYYWRQGTQVTVSS”, the “polyreactivity (PSR sort gate)” value was “high polyreactivity”.

Take “QVQLVESGGGLVQAGGSLRLSCAASGFNSHFYAMGSYRQAPGKEREFVDRISYSGGSTYYADSVKGRFTISRDNAKNTVYLQMNSLKPEDTAVYFCAADKHYFRHFGSWGQGTQVTVSS”: the “polyreactivity (PSR sort gate)” value is on record as “low polyreactivity”.

“QVQLVESGGGLVQAGGSLRLSCAASGFPIHAYVMGWYRQAPGKERELVAAISSGGSTYYADSVKGRFTISRDNAKKTVYLQMNSLKPEDTAVYYCAAGYPYYWHFDYWGQGTQVTVSS”: the “polyreactivity (PSR sort gate)” value is reported as “low polyreactivity”.

As for “QVQLVESGGGLVQAGGSLRLSCAASGFQYGMGWYRQAPGKERELVAAISRDGSTNYADSVKGRFTISRDNAKNTVYLQMNSLKPEDTAVYYCAVDFYFLYGWGQGTQVTVSS”, the “polyreactivity (PSR sort gate)” value was “low polyreactivity”.

As for “QVQLVESGGGLVQAGGSLRLSCAASGFSFKLYAMGWYRQAPGKEREFVAAINRSGGSTYYADSVKGRFTISRDNAKNTVYLQMNSLKPEDTAVYYCAALAYTLYDYWGQGTQVTVSS”, the “polyreactivity (PSR sort gate)” value was “high polyreactivity”.

In the case of “QVQLVESGGGLVQAGGSLRLSCAASGFSFKSYAMGWYRQAPGKERELVAAISRGTSTKYADSVKGRFTISRDNAKNTVYLQMNSLKPEDTAVYNCAALFPTSDLRLRYYRYDYWGQGTQVTVSS”, the “polyreactivity (PSR sort gate)” value is reported as “low polyreactivity”.

Take “QVQLVESGGGLVQAGGSLRLSCAASGFSFSRYAMGWYRQAPGKEREFVASITRRGGSTYYADSVKGRFTISRDNAKNTVYLQMNSLKPEDTAVYYCNAGYTWGRFEYWGQGTQVTVSS”: the “polyreactivity (PSR sort gate)” value was “high polyreactivity”.

On to “QVQLVESGGGLVQAGGSLRLSCAASGFSFTSNAMAWYRQAPGKERELVAAITTRGGSTYYADSVKGRFTLSRDNAKNTVDLPMNSLKPEDTSVYYCAARYSYWGLLRYDYWGQGTQVTVSS”, for which the “polyreactivity (PSR sort gate)” value is “high polyreactivity”.

With “QVQLVESGGGLVQAGGSLRLSCAASGFTCASNDMGWSRQAPGKERELVAAITKGGGRTYYADSVKGRFTISRDNAKNTVYLQMNSLKPEDTAVYYCAARQLIKYDYWGPGTQVTVSS”, the “polyreactivity (PSR sort gate)” value is listed as “low polyreactivity”.

Take “QVQLVESGGGLVQAGGSLRLSCAASGFTCGSYTMGWYRQAPGKERELVAVISRSGSSTYYADSVKGRFTISRDNAKNTVYLQMNSLKPEDTAVYYCNADYSRLGYDYWGQGTQVTVSS”: the “polyreactivity (PSR sort gate)” value is given as “high polyreactivity”.

On to “QVQLVESGGGLVQAGGSLRLSCAASGFTCTRNAMGWFRQAPGKERELVAAISSSAGSTSYADSVKGRFTISRDNAKNTDYLQMNSLKPEDTAVYYCATEGSYYSWVGKVGYRYQYHYWGQGTQVTVSS”, for which the “polyreactivity (PSR sort gate)” value is on record as “high polyreactivity”.

As to “QVQLVESGGGLVQAGGSLRLSCAASGFTFAANAMGWYRQAPGKERELVAAISSDSTYADSVKGRFTISRDNAKNTVYLQMNSLKPEDTAVYYCAKDRYIVNSPGLDYWGQGTQVTVSS”, the “polyreactivity (PSR sort gate)” value is “low polyreactivity”.

For “QVQLVESGGGLVQAGGSLRLSCAASGFTFAFYAMGWYRQAPGKERELVAAISWDGVTTYYADSVKGRFTISRDNAKNTVYLQMNSLKPEDTAVYYCNVQWYGGYDYWGQGTQVTVSS”, the “polyreactivity (PSR sort gate)” value is “low polyreactivity”.

As to “QVQLVESGGGLVQAGGSLRLSCAASGFTFAFYAMGWYSPAPGKVRELVAAISWDGVTTYYADSVKGRFTISRDNAKNTVYLQMNSLKPEDTAVYYCAADYPDYAASFWPSGMYYWGQGTQVTVSS”, the “polyreactivity (PSR sort gate)” value is “low polyreactivity”.

On to “QVQLVESGGGLVQAGGSLRLSCAASGFTFAGYAMGWYRQAPGKERELVAGIRSSGARTYYADSAKGRFTISRDNAKNTVYFKMNSLKPEDTADYYFAKTDGFYRGYGYWGQGTKVTVSS”, for which the “polyreactivity (PSR sort gate)” value was “low polyreactivity”.

Regarding “QVQLVESGGGLVQAGGSLRLSCAASGFTFAHNAMGWYRQAPGKERELVAAITRSGGSTYYADSVKGRFTISRDNAKNTVYLQMNSLKPEDTAVYYCNAGRRGSGYGYWGQGTQVTVSS”, the “polyreactivity (PSR sort gate)” value is “high polyreactivity”.

For the sequence “QVQLVESGGGLVQAGGSLRLSCAASGFTFAKNAMGWYRQAPGKERELVATISRSGGSTYYADSVKGRFTISRDNAKNTVYLQMNSLKPEDTAVYYCAADRSYGVLGNEGGYWGQGTQVTVSS”, the “polyreactivity (PSR sort gate)” value is “high polyreactivity”.

With “QVQLVESGGGLVQAGGSLRLSCAASGFTFAKYAMGWYRQAPGKERELVAAISSSGGRTYYADSVQGRFTLSRDNAKNTDYLQMNSLKPEDTAVYYCAADFSGPFDYWGQGTQVTVSS”, the “polyreactivity (PSR sort gate)” value was “high polyreactivity”.

For the sequence “QVQLVESGGGLVQAGGSLRLSCAASGFTFALYAMGWYRQAPGKERELVAAISSSGGSTYYADSVKGRFTISRDNAKNTVYLQMNSLKPEDTAVYYCNATRPYRYQSHTRTPRRGYWGQGTQVTVSS”, the “polyreactivity (PSR sort gate)” value is given as “high polyreactivity”.

Regarding “QVQLVESGGGLVQAGGSLRLSCAASGFTFANNAMGWYRQAPGKERELVAAITSSGTRTYYADSVKGRFTISRDNAKNTVYLQMNSLKPEDTAVYYCAADKPGRPSRMYYWGQGTQVTVSS”, the “polyreactivity (PSR sort gate)” value is reported as “high polyreactivity”.

As for “QVQLVESGGGLVQAGGSLRLSCAASGFTFAPNAMAWYRQAPGKERELVAAITWSGGSTYYADSVKGRFTISRDNAKNTVYLQMNSLKPEDTAVYYCNAVSRSTVTGQHDYWGQGTQVTVSS”, the “polyreactivity (PSR sort gate)” value was “high polyreactivity”.

In the case of “QVQLVESGGGLVQAGGSLRLSCAASGFTFAPNAMGWYRPAPGKEWELVAAISSASSTYYADSVKGRFTISRDNAKYNVYLQMKSLLPEDTAVYYCNAYYWFGPGRDYWGQGTQVTVSS”, the “polyreactivity (PSR sort gate)” value is on record as “high polyreactivity”.

On to “QVQLVESGGGLVQAGGSLRLSCAASGFTFAPYAMGWYRQAPGKERELVAAISSNGGSTYYADSVKGRFTISRDNAKNTVYLQMISMKPEYTAVYYCAVTSIGYTRYYYWGHGTQVTVSS”, for which the “polyreactivity (PSR sort gate)” value is listed as “high polyreactivity”.

Regarding “QVQLVESGGGLVQAGGSLRLSCAASGFTFAQYTMGWYRQAPGKERELVAAIRVGGGSTYYADSVKGRFTISRDNAKNTVYLQMNSLKPEDTAVYYCAKRTYSRKFRGAYNYWGQGTQVTVSS”, the “polyreactivity (PSR sort gate)” value is recorded as “high polyreactivity”.

As to “QVQLVESGGGLVQAGGSLRLSCAASGFTFARNAMGWYRPAPGKERELVAGITSRGSSTSYADSVKGRFTISRDNAKNTVYLQMNSLKPEDTAVYYSAADRYSAYLYWDEYWGQGTQVTVSS”, the “polyreactivity (PSR sort gate)” value is “high polyreactivity”.

As for “QVQLVESGGGLVQAGGSLRLSCAASGFTFARYAMGWYRQAPGKEREFVAAIDKSGGSTYYADSVKGRFTISRDNAKNTVYLQMNSLKPEDTAVYYCAAVYSSYGRRYNSWGQGTQVTVSS”, the “polyreactivity (PSR sort gate)” value was “high polyreactivity”.

Regarding “QVQLVESGGGLVQAGGSLRLSCAASGFTFARYAMGWYRQAPGKERELVAAISISGGRTYYADSVKGRFSISRDNAKNTVYLQMNSLKPEDTAVYYCNKGHVPSYDYNYWGQGTQVTVSW”, the “polyreactivity (PSR sort gate)” value is reported as “high polyreactivity”.

For the sequence “QVQLVESGGGLVQAGGSLRLSCAASGFTFARYAMGWYRQAPGKERELVAAITYSGGRTYYAVSVKGRFTISRDNAKNTVYLQMNSLKPEDTAVYYCAVKHSSPGRYYYWGQGTQVTVSS”, the “polyreactivity (PSR sort gate)” value is recorded as “high polyreactivity”.

As for “QVQLVESGGGLVQAGGSLRLSCAASGFTFARYAMGWYRQAPGKERELVAAMTYRGGSTYYADSVKGRFTISRDNAKNTVYLQMNSLKPEDTAVYYCNAGRLWFPGVPEYDYWGQGTQVTVSS”, the “polyreactivity (PSR sort gate)” value is reported as “high polyreactivity”.

“QVQLVESGGGLVQAGGSLRLSCAASGFTFARYTMGWYRQAPGKERELVAAISSRGSSTYYADSVKGRFTISRDNAKNTVFLQMNSLKPEDTAVYYCAASPYDTQSLDYDYWGQGTQVTVSS”: the “polyreactivity (PSR sort gate)” value was “high polyreactivity”.

Take “QVQLVESGGGLVQAGGSLRLSCAASGFTFARYTMGWYRQAPGKERELVAAISSRGSSTYYADSVKGRFTISRDNAKNTVYLQMNSLKPEDTAVYYCAASPYDTQTLDYAYWGQGTQVTVSS”: the “polyreactivity (PSR sort gate)” value was “high polyreactivity”.

Consider “QVQLVESGGGLVQAGGSLRLSCAASGFTFATYAMGWYRQAPGKKGRLVAAISNAGSTKYADSVKGRFTISRDNAKNTVYLQMNSLKPEDTAVYYCAASTLYASSYYLYDYWGQGTQVTVSS”, for which the “polyreactivity (PSR sort gate)” value is on record as “high polyreactivity”.

Turning to “QVQLVESGGGLVQAGGSLRLSCAASGFTFAVYAMGWYRQAPGKERELVAAISRSGTRTYYADSVKGRFTISRDNAKNTVYLQMNSLKPEDTAVYYCAAPWTQILDYWGQGTQVTVSS”, the “polyreactivity (PSR sort gate)” value is reported as “low polyreactivity”.

Regarding “QVQLVESGGGLVQAGGSLRLSCAASGFTFAYNAMGWYRQAPGKERELDAAINSSGGTTYYADSVKGRFTISRDNAKNTVYLQMNSLKPEDTAVYYCAAVYSTSYSGSFPGYDYWGQGTQVTVSS”, the “polyreactivity (PSR sort gate)” value is recorded as “low polyreactivity”.

For the sequence “QVQLVESGGGLVQAGGSLRLSCAASGFTFAYYAMGWDRQSPGNEREFVAAISSRGGSTYADSVKGRFTISRDNAKNTVYLQMNSLKPEDTAVYYCNAVVPRSRYFSWTYDYWGQGTQVTVSS”, the “polyreactivity (PSR sort gate)” value was “high polyreactivity”.

Consider “QVQLVESGGGLVQAGGSLRLSCAASGFTFAYYAMGWYRPAPGKERELVATIRGGGSTNYADSVKGRFTISRDNAKNTVYLQMNSLKPEDTAVYYCAAGYVWYFDYFSAYYWGQGTQVTVSS”, for which the “polyreactivity (PSR sort gate)” value was “high polyreactivity”.

On to “QVQLVESGGGLVQAGGSLRLSCAASGFTFAYYAMGWYRQAPGKERELVAAISWTGGSTYYADSVKGRFTISRDNAKNTVYLQMNSLKPEDTAVYYCAARGYRYRSYDYWGQGTQVTVSS”, for which the “polyreactivity (PSR sort gate)” value is listed as “high polyreactivity”.

On to “QVQLVESGGGLVQAGGSLRLSCAASGFTFAYYAMGWYRQAPGKERELVAAITGSGGRTYYADSVKGRFTISRDNAKNTVYLQMNSLKPEDTAVYYCAADRTVYYLSRTGYDYWGQGTQVTVSS”, for which the “polyreactivity (PSR sort gate)” value is given as “high polyreactivity”.

For “QVQLVESGGGLVQAGGSLRLSCAASGFTFAYYAMGWYRQAPGKERELVAAITVSGASTYYADSVKGRFTISRDNAKNTVYLQMNSLKPEDTAVYYCNASSVSFYYLEPSQPMDYWGQGTQVTVSS”, the “polyreactivity (PSR sort gate)” value was “high polyreactivity”.
